Assay results taken from patent publication US20220195455A1, “DELIVERY OF CRISPR/MCAS9 THROUGH EXTRACELLULAR VESICLES FOR GENOME EDITING” (University of Georgia Research Foundation, Inc., priority 2019, published 2022).

Legend:
Test in all cases: NMT1 activity assay (CoA release, fluorescence);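 further: released CoA from NMT1-catalysed myristoylation of octapeptide substrates detected by fluorescence after reaction with a maleimide coumarin dye (excitation 390 nm, emission 479 nm), triplicate points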
Type in all cases: biochemical
Details in all cases: other: octapeptide as NMT1 substrate; full length NMT1
[1] = substrate: N=C(N)NCCC[C@H](NC(=O)[C@H](CCCNC(=N)N)NC(=O)[C@H](CCCCN)NC(=O)[C@H](CO)NC(=O)[C@H](Cc1ccccc1)NC(=O)[C@H](Cc1ccccc1)NC(=O)[C@H](CS)NC(=O)CN)C(=O)O
Procedure: (§1) The amount of the released CoA were reacted with 7-diethylamino-3-(4′-maleimidylphenyl)-4-methylcoumarin. The assay was performed in 96-well black microplates. The produced fluorescence intensity was measured by Flex Station 3, and detected by microplate reader (excitation at 390 nm; emission at 479 nm).
(§2) The amount of the released CoA were reacted with 7-diethylamino-3-(4′-maleimidylphenyl)-4-methylcoumarin. The assay was performed in 96-well black microplates. The produced fluorescence intensity was measured by Flex Station 3, and detected by microplate reader (excitation at 390 nm; emission at 479 nm). To measure the Km and Vmax of NMT1 which catalyzed various octapeptides substrates derived from various proteins, twenty-five octapeptides were synthesized by GenScript. […] Each data point has three repeats.
(§3) Km and Vmax catalyzed by full length NMT1 protein were calculated.

[2] = substrate: CC(C)[C@H](NC(=O)[C@H](CS)NC(=O)CN)C(=O)N[C@@H](CCC(N)=O)C(=O)N[C@@H](CS)C(=O)N[C@@H](CCCCN)C(=O)N[C@@H](CC(=O)O)C(=O)N[C@@H](CCCCN)C(=O)O
Procedure: as §1, §2, §3

[3] = substrate: CC[C@H](C)[C@H](NC(=O)[C@@H](NC(=O)[C@H](CC(C)C)NC(=O)[C@H](CC(C)C)NC(=O)CN)[C@@H](C)O)C(=O)N[C@@H](CC(C)C)C(=O)N[C@@H](CCCCN)C(=O)N[C@@H](CCCCN)C(=O)O
Procedure: as §1, §2, §3

[4] = substrate: CSCC[C@H](NC(=O)[C@@H](NC(=O)[C@H](CCC(=O)O)NC(=O)CN)[C@@H](C)O)C(=O)N[C@@H](CO)C(=O)N[C@@H](CCCCN)C(=O)N[C@@H](CCCNC(=N)N)C(=O)N[C@@H](CC(C)C)C(=O)O
Procedure: as §1, §2, §3

[5] = substrate: CC[C@H](C)[C@H](NC(=O)[C@H](CS)NC(=O)CN)C(=O)N[C@@H](CCCCN)C(=O)N[C@@H](CO)C(=O)N[C@@H](CCCCN)C(=O)NCC(=O)N[C@@H](CCCCN)C(=O)O
Procedure: as §1, §2, §3

[6] = substrate: N=C(N)NCCC[C@H](NC(=O)[C@H](Cc1ccc(O)cc1)NC(=O)[C@H](Cc1c[nH]cn1)NC(=O)[C@H](CCCNC(=N)N)NC(=O)[C@H](CO)NC(=O)[C@H](CCC(=O)O)NC(=O)[C@H](CCCNC(=N)N)NC(=O)CN)C(=O)O
Procedure: as §1, §2, §3

[7] = substrate: C[C@H](NC(=O)[C@H](CC(N)=O)NC(=O)CN)C(=O)N[C@@H](CCC(N)=O)C(=O)N[C@@H](CCC(=O)O)C(=O)N[C@@H](CCCNC(=N)N)C(=O)N1CCC[C@H]1C(=O)N[C@@H](CO)C(=O)O
Procedure: as §1, §2, §3

[8] = substrate: C[C@H](NC(=O)[C@H](CCCCN)NC(=O)[C@H](CO)NC(=O)[C@H](CO)NC(=O)[C@H](CCCCN)NC(=O)[C@H](CCCNC(=N)N)NC(=O)CN)C(=O)N[C@@H](CCCCN)C(=O)O
Procedure: as §1, §2, §3

[9] = substrate: CC[C@H](C)[C@H](NC(=O)[C@H](CCCCN)NC(=O)[C@H](CO)NC(=O)[C@H](CC(C)C)NC(=O)[C@@H](NC(=O)[C@H](CCCCN)NC(=O)CN)C(C)C)C(=O)N[C@@H](Cc1ccccc1)C(=O)O
Procedure: as §1, §2, §3

[10] = substrate: CC(C)[C@H](NC(=O)[C@H](CCCNC(=N)N)NC(=O)[C@H](CO)NC(=O)CN)C(=O)N[C@@H](CO)C(=O)N[C@@H](CCCNC(=N)N)C(=O)N[C@@H](CCC(=O)O)C(=O)N[C@@H](CC(=O)O)C(=O)O
Procedure: as §1, §2, §3

[11] = substrate: CC(C)C[C@H](NC(=O)CNC(=O)CN)C(=O)N[C@@H](Cc1ccccc1)C(=O)N[C@@H](CO)C(=O)N[C@@H](CCCNC(=N)N)C(=O)N[C@@H](Cc1c[nH]c2ccccc12)C(=O)N[C@@H](CCCNC(=N)N)C(=O)O
Procedure: as §1, §2, §3

[12] = substrate: CC(C)C[C@H](NC(=O)CN)C(=O)N[C@@H](CC(C)C)C(=O)N[C@@H](CC(=O)O)C(=O)N[C@@H](CCCNC(=N)N)C(=O)N[C@@H](CC(C)C)C(=O)N[C@@H](CO)C(=O)N[C@H](C(=O)O)C(C)C
Procedure: as §1, §2, §3

[13] = substrate: CC[C@H](C)[C@H](NC(=O)CNC(=O)[C@H](CCCNC(=N)N)NC(=O)[C@@H](NC(=O)[C@@H](NC(=O)[C@H](CC(C)C)NC(=O)[C@H](C)NC(=O)CN)C(C)C)[C@@H](C)CC)C(=O)O
Procedure: as §1, §2, §3

[14] = substrate: C[C@H](NC(=O)[C@@H](NC(=O)[C@H](CCCCN)NC(=O)[C@H](CO)NC(=O)[C@H](Cc1ccccc1)NC(=O)[C@H](CCC(N)=O)NC(=O)[C@H](C)NC(=O)CN)[C@@H](C)O)C(=O)O
Procedure: as §1, §2, §3

[15] = substrate: CC(C)C[C@H](NC(=O)[C@H](CCC(N)=O)NC(=O)[C@H](CCC(N)=O)NC(=O)[C@H](CO)NC(=O)[C@H](C)NC(=O)[C@H](CCCCN)NC(=O)[C@H](CCC(N)=O)NC(=O)CN)C(=O)O
Procedure: as §1, §2, §3

[16] = substrate: NCCCC[C@H](NC(=O)[C@@H]1CCCN1C(=O)[C@H](CCCCN)NC(=O)[C@H](CO)NC(=O)[C@H](CCCCN)NC(=O)[C@H](CC(N)=O)NC(=O)[C@H](CO)NC(=O)CN)C(=O)O
Procedure: as §1, §2, §3

[17] = substrate: C[C@H](N)C(=O)N[C@@H](CO)C(=O)N[C@@H](CC(N)=O)C(=O)N[C@@H](CCCCN)C(=O)N[C@@H](CO)C(=O)N[C@@H](CCCCN)C(=O)N1CCC[C@H]1C(=O)N[C@@H](CCCCN)C(=O)O
Procedure: as §1, §2, §3

[18] = substrate: CC[C@H](C)[C@H](NC(=O)[C@H](CS)NC(=O)CN)C(=O)N[C@@H](CCCCN)C(=O)N[C@@H](CO)C(=O)N[C@@H](CCCCN)C(=O)N[C@@H](CCC(=O)O)C(=O)N[C@@H](CC(N)=O)C(=O)O
Procedure: as §1, §2, §3

[19] = substrate: CC(C)C[C@H](NC(=O)[C@H](C)NC(=O)[C@H](CO)NC(=O)[C@H](CC(N)=O)NC(=O)[C@H](CCC(=O)O)NC(=O)[C@H](CO)NC(=O)CN)C(=O)N[C@@H](CCCCN)C(=O)O
Procedure: as §1, §2, §3

[20] = substrate: CC(C)C[C@H](NC(=O)[C@H](CS)NC(=O)[C@H](CC(N)=O)NC(=O)CN)C(=O)N[C@@H](CCCCN)C(=O)N[C@@H](CO)C(=O)N1CCC[C@H]1C(=O)N[C@H](C(=O)O)[C@@H](C)O
Procedure: as §1, §2, §3

[21] = substrate: CC(C)C[C@H](NC(=O)[C@H](Cc1c[nH]cn1)NC(=O)[C@H](C)NC(=O)CN)C(=O)N[C@H](C(=O)N[C@@H](CCCNC(=N)N)C(=O)N[C@@H](CCCNC(=N)N)C(=O)N[C@@H](Cc1ccc(O)cc1)C(=O)O)C(C)C
Procedure: as §1, §2, §3

[22] = substrate: C[C@H](NC(=O)[C@H](CCCCN)NC(=O)[C@H](CO)NC(=O)[C@H](CO)NC(=O)[C@H](CCC(N)=O)NC(=O)[C@H](CO)NC(=O)CN)C(=O)N1CCC[C@H]1C(=O)O
Procedure: as §1, §2, §3

[23] = substrate: N=C(N)NCCC[C@H](NC(=O)[C@H](CS)NC(=O)CN)C(=O)N[C@@H](CCC(N)=O)C(=O)N[C@@H](CO)C(=O)N[C@@H](CO)C(=O)N[C@@H](CCC(=O)O)C(=O)N[C@@H](CCC(=O)O)C(=O)O
Procedure: as §1, §2, §3

[24] = substrate: C[C@H](NC(=O)[C@@H]1CCCN1C(=O)CNC(=O)[C@H](CO)NC(=O)[C@H](CCC(N)=O)NC(=O)[C@H](CCCCN)NC(=O)[C@H](C)NC(=O)CN)C(=O)O
Procedure: as §1, §2, §3

B1: full length NMT1 protein (Homo sapiens) (protein)
chain: MADESETAVKPPAPPLPQMMEGNGNGHEHCSDCENEEDNSYNRGGLSPANDTGAKKKKKKQKKKKEKGSETDSAQDQPVKMNSLPAERIQEIQKAIELFSVGQGPAKTMEEASKRSYQFWDTQPVPKLGEVVNTHGPVEPDKDNIRQEPYTLPQGFTWDALDLGDRGVLKELYTLLNENYVEDDDNMFRFDYSPEFLLWALRPPGWLPQWHCGVRVVSSRKLVGFISAIPANIHIYDTEKKMVEINFLCVHKKLRSKRVAPVLIREITRRVHLEGIFQAVYTAGVVLPKPVGTCRYWHRSLNPRKLIEVKFSHLSRNMTMQRTMKLYRLPETPKTAGLRPMETKDIPVVHQLLTRYLKQFHLTPVMSQEEVEHWFYPQENIIDTFVVENANGEVTDFLSFYTLPSTIMNHPTHKSLKAAYSFYNVHTQTPLLDLMSDALVLAKMKGFDVFNALDLMENKTFLEKLKFGIGDGNLQYYLYNWKCPSMGAEKVGLVLQ
notes: Km and Vmax catalyzed by full length NMT1 protein were calculated
Protein B1 has a Km [1] of 13.6 µM, a Vmax [1] of 60.8 µM/min and a Km [2] of 5.2 µM. The Vmax [2] was 54.9 µM/min, the Km [3] was 0.4 µM and the Vmax [3] was 1.2 µM/min. For the same protein, the Km [4] was 13.0 µM, the Vmax [4] was 5.3 µM/min and the Km [5] was 22.5 µM. For the same protein, the Vmax [5] was 64.7 µM/min, the Vmax [6] was 2 µM/min and the Km [7] was 1.4 µM. The Vmax [7] was 2 µM/min, the Km [8] was 1.2 µM and the Vmax [8] was 1.8 µM/min. For the same protein, the Km [9] was 4.4 µM, the Vmax [9] was 13.6 µM/min and the Km [10] was 79.2 µM. It also gave a Vmax [10] of 12.9 µM/min, a Km [11] of 10.3 µM and a Vmax [11] of 21.9 µM/min. For the same protein, the Vmax [12] was 1.8 µM/min, the Km [13] was 0.5 µM and the Vmax [13] was 1.2 µM/min. It also gave a Km [14] of 38.4 µM, a Vmax [14] of 6.4 µM/min and a Km [15] of 15.7 µM. The Vmax [15] was 3.4 µM/min, the Km [16] was 14.3 µM and the Vmax [16] was 25.8 µM/min. It also gave a Vmax [17] of 1 µM/min, a Km [18] of 14.4 µM and a Vmax [18] of 61 µM/min. The Km [19] was 0.8 µM, the Vmax [19] was 1.7 µM/min and the Km [20] was 16.7 µM. For the same protein, the Vmax [20] was 61.1 µM/min, the Km [21] was 16.4 µM and the Vmax [21] was 2.8 µM/min. The Km [22] was 11.7 µM, the Vmax [22] was 6.6 µM/min and the Km [23] was 15.7 µM. For the same protein, the Vmax [23] was 64.4 µM/min, the Km [24] was 2.0 µM and the Vmax [24] was 1.6 µM/min.
